The text below walks through data of paper PMC8647080, “Evolution of CPEB4 Dynamics Across its Liquid–Liquid Phase Separation Transition” (The Journal of Physical Chemistry. B, 2021).

The series concerns the molecule itself. In words: CW-EPR line shape of the spin label; X band, 2-45 °C, 10-112 μM, 100 mM NaCl, pH 8; spectra simulated with three components (I monomer, II and III in assemblies).

B1: spin labeled CPEB4NTD-C441S/G320C (domain or fragment, human, UniProt Q17RY0-2 1-448, looked up)
chain: MGDYGFGVLVQSNTGNKSAFPVRFHPHLQPPHHHQNATPSPAAFINNNTAANGSSAGSAWLFPAPATHNIQDEILGSEKAKSQQQEQQDPLEKQQLSPSPGQEAGILPETEKAKSEENQGDNSSENGNGKEKIRIESPVLTGFDYQEATGLGTSTQPLTSSASSLTGFSNWSAAIAPSSSTIINEDASFFHQGGVPAASANNGALLFQNFPHHVSPGFGGSFSPQIGPLSQHHPHHPHFQHHHSQHQQQRRSPASPHPPPFTHRNAAFNQLPHLANNLNKPPSPWSSYQSPSPTPSSSWSPGGGGYGGWGGSQGRDHRRCLNGGITPLNSISPLKKNFASNHIQLQKYARPSSAFAPKSWMEDSLNRADNIFPFPDRPRTFDMHSLESSLIDIMRAENDTIKARTYGRRRGQSSLFPMEDGFLDDGRGDQPLHSGLGSPHSFSHQNGE
modifications: nitroxide spin label on the introduced cysteine 320 (marked * in the paper)
notes: also called C441S/G320C CPEB4NTD mutant; source: E. coli BL21(DE3), purified using the same protocol (Ni2+-NTA, Superdex-200)
In the case of B1, the binding result is on record as “binds”.
